# Measurements reported in publication PMC13544220, “Glycemic and bodyweight effects of GIPR coding variation reflect differences in surface expression and intrinsic functional impairment” (Science Advances, 2026).
# B1: L262V (protein, UniProt P48546 22-466, looked up, variant L262V)
# Gastric inhibitory …: RAETGSKGQTAGELYQRWERYRRECQETLAAAEPPSGLACNGSFDMYVCWDYAAPNATARASCPWYLPWHHHVAAGFVLRQCGSDGQWGLWRDHTQCENPEKNEAFLDQRLILERLQVMYTVGYSLSLATLLLALLILSLFRRLHCTRNYIHINLFTSFMLRAAAILSRDRLLPRPGPYLGDQALALWNQALAACRTAQIVTQYCVGANYTWLLVEGVYLHSLLVLVGGSEEGHFRYYLLVGWGAPALFVIPWVIVRYLYENTQCWERNEVKAIWWIIRTPILMTILINFLIFIRILGILLSKLRTRQMRCRDYRLRLARSTLTLVPLLGVHEVVFAPVTEEQARGALRFAKLGFEIFLSSFQGFLVSVLYCFINKEVQSEIRRGWHHCRLRRSLGEEQRQLPERAFRALPSGSGPGEVPTSRGLSSGTLPGPGNEASRELESYC
# Key:
# Type in all cases: cell-based, human
# [1] = tested on: wild-type and variant SNAP-GIPR; experiment: Single-concentration GIP cAMP response by HTRF in AD293 cells; details: Fig S3F, HTRF, mean;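 also: ratio to experiment-wide average response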
# Method: (§1) All variants were tested in parallel on each occasion to control for transfection efficiency differences between experiments.
# [2] = tested on: wild-type and variant SNAP-GIPR; experiment: Constitutive and agonist-mediated internalization, reversible SNAP-tag labelling, INS-1 cells; set-up: key to Internalisation, GIP-only / Internalisation, Vehicle / Internalisation, +GIP: % internalization: residual fluorescence after Mesna vs pre-Mesna; details: Mean
# Method: (§2) Twenty-four hours before the experiment, AD293 or INS-1 cells were reverse transfected with GIPR variant or wild-type plasmids using Lipofectamine 2000 in 96-well, clear-bottom, black microplates precoated with poly-D-lysine. All variants were tested in parallel on each occasion to control for transfection efficiency differences between experiments. […] Media were then removed, cells washed with PBS and then placed in TNE buffer (pH 8.6) for imaging. […] After 10 min, the well was reimaged again to detect remaining fluorescence from internalized GIPR. Images were analyzed as in the “Assessment of surface GIPR expression by SNAP-tag labeling in cell lines” section, with the residual specific fluorescence after Mesna treatment expressed relative to the pre-Mesna value to establish percentage internalization.
# [3] = tested on: wild-type and variant SNAP-GIPR; experiment: Surface SNAP-GIPR expression (SNAP-tag labelling) in INS-1 cells; details: Fig 4G; Mean
# Method: Twenty-four hours before the experiment, AD293 or INS-1 cells were reverse transfected with GIPR variant or wild-type plasmids using Lipofectamine 2000 in 96-well, clear-bottom, black microplates precoated with poly-D-lysine. All variants were tested in parallel on each occasion to control for transfection efficiency differences between experiments. Cells were then labeled using the cell-impermeant probe SNAP-Surface Alexa Fluor 647 (500 nM, New England Biolabs, USA) for 10 min at room temperature to label only surface GIPR. […] Several fields of view (FOVs) were acquired within each well using a 20X, 0.75–numerical aperture (NA) air objective. Surface GIPR fluorescence was quantified after flat-field correction using BaSiC ([72]) and segmenting using Phantast ([73]), which generates a mask based on the phase contrast images to demarcate cell versus noncell. Wide-field imaging of the surface-specific labeling achieved by SNAP-Surface probes means that surface expression can be established from whole-cell fluorescence, after subtracting nonspecific fluorescence from a separate well containing nontransfected cells processed in parallel from the same experiment. Data were normalized by dividing by the average specific signal across each experiment, or by the wild-type value, as indicated in the figure legends.
# [4] = tested on: wild-type and variant SNAP-GIPR; experiment: Single-concentration GIP cAMP response by HTRF in INS-1 cells; details: Fig S3E, mean
# Method: as §1
# [5] = tested on: wild-type and variant SNAP-GIPR; experiment: cADDis cAMP imaging in AD293 cells, ensemble, expression-matched and per decile; details: Fig S3F, cADDis, mean
# Method: AD293 cells were reverse transfected with the GIPR variant or wild-type plasmids using Lipofectamine 2000 and cotransduced with the cADDis Green Up BacMam (10 μl per well, Montana Molecular, USA), in 96-well, poly-D-lysine–coated microplates. All variants were tested in parallel on each occasion to control for transfection efficiency differences between experiments. After 24 hours, cells were labeled using 500 nM SNAP-Surface Alexa Fluor 647 for 10 min at room temperature. Cells were washed three times and then imaged in KRBH buffer containing 6 mM glucose and 0.1% BSA. Imaging was performed at 37°C by wide-field microscopy using the same microscope as in the “Assessment of surface GIPR expression by SNAP-tag labeling in cell lines” section, with 9 FOVs for both cADDis and SNAP-Surface fluorescence acquired from each well using a 10X, 0.45 NA air objective. […] Flat-field correction was performed using BaSiC ([72]), drift correction was performed using SIFT, and a maximum intensity projection of the cADDis channel was used to segment individual cells. cAMP responses were determined by quantifying the cADDis fluorescence intensity for each cell at each time point. Nonviable cells or noncell objects were excluded according to criteria for allowable cell IBMX/FSK responses. […] The cADDis mask was then used to quantify the SNAP-Surface signal from each cell. Wild-type SNAP-Surface readings were split into deciles, and these deciles were subsequently used to categorize variant-transfected cells to match against the wild type. After trimming the top and bottom deciles, the mean was taken of each decile mean for surface expression level or cAMP response, which achieved matched expression levels by effectively applying an inverse weighting to counteract differences in cell number in each decile for different variants. Ensemble expression levels or cAMP responses were calculated without regard to deciles. Variant cADDis responses were also analyzed within their own surface expression deciles.
# [6] = tested on: wild-type and variant SNAP-GIPR; experiment: Surface SNAP-GIPR expression (SNAP-tag labelling) in AD293 cells; details: for AD293 Surface: Fig S3E, mean; for Surface SNAP-GIPR expression: sheet Fig 1C;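 as to all read-outs here: scaled to the experimental average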
# Summary of the method: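 Surface GIPR is quantified from wide-field images after labelling intact transfected cells with a membrane-impermeant SNAP probe at 500 nM for 10 min at room temperature. Specific signal, corrected for nontransfected cells, is normalized to the experiment-wide average or to wild-type.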
# [7] = tested on: wild-type and variant SNAP-GIPR; experiment: Constitutive and agonist-mediated internalization, reversible SNAP-tag labelling, AD293 cells; set-up: key to Internalisation, Vehicle / Internalisation, +GIP / Internalisation, GIP-only: % internalization: residual fluorescence after Mesna vs pre-Mesna; Surface expression: unit not given here; details: Mean
# Method: as §2
molecule,measurement,setting,value
B1,AD293 100 pM HTRF,"[1]; AD293, 100 pM",1.19
same,AD293 100 nM HTRF,"[1]; AD293, 100 nM",1.331
same,+GIP internalisation (100 nM),"[2]; Fig 4G, GIP 100 nM",0.5955
same,GIP-specific internalisation (100 nM),"[2]; Fig 4G, GIP 100 nM",0.1388
same,Constitutive internalisation (100 nM),[2]; Fig 4G,0.4567
same,"Internalisation, +GIP","[2]; Fig S4C, INS-1",50.3417
same,"Internalisation, GIP-only","[2]; Fig S4C, INS-1",11.92
same,"Internalisation, Vehicle","[2]; Fig S4C, INS-1",38.4217
same,Surface expression,[3],1.205
same,INS-1 cAMP (100 nM),[4],1.234
same,AD293 100 pM cADDis,"[5]; AD293, 100 pM",31.1728
same,AD293 100 nM cADDis,"[5]; AD293, 100 nM",39.27
same,AD293 Surface,"[6]; column repeated, paired with cAMP 100 nM",1.3
same,AD293 Surface,[6]; paired with cAMP 100 pM,1.3
same,Surface SNAP-GIPR expression,[6]; replicate 1,1.375
same,Surface SNAP-GIPR expression,[6]; replicate 2,0.996
same,Surface SNAP-GIPR expression,[6]; replicate 3,2.76
same,Surface SNAP-GIPR expression,[6]; replicate 4,0.9875
same,Surface SNAP-GIPR expression,[6]; replicate 5,1.257
same,Surface SNAP-GIPR expression,[6]; replicate 6,2.431
same,Surface SNAP-GIPR expression,[6]; replicate 7,1.521
same,Surface SNAP-GIPR expression,[6]; replicate 8,0.9638
same,Surface SNAP-GIPR expression,[6]; replicate 9,1.328
same,Surface SNAP-GIPR expression,[6]; replicate 10,1.382
same,Surface SNAP-GIPR expression,[6]; replicate 11,1.153
same,Surface SNAP-GIPR expression,[6]; replicate 12,1.188
same,Surface SNAP-GIPR expression,[6]; replicate 13,1.165
same,Surface SNAP-GIPR expression,[6]; replicate 14,1.166
same,Surface SNAP-GIPR expression,[6]; replicate 15,1.23
same,Surface SNAP-GIPR expression,[6]; replicate 16,1.047
same,Surface SNAP-GIPR expression,[6]; replicate 17,1.27
same,Surface SNAP-GIPR expression,[6]; replicate 18,1.238
same,Surface SNAP-GIPR expression,[6]; replicate 19,0.9807
same,Surface SNAP-GIPR expression,[6]; replicate 20,0.8682
same,Surface SNAP-GIPR expression,[6]; replicate 21,1.136
same,Surface SNAP-GIPR expression,[6]; replicate 22,1.402
same,Surface SNAP-GIPR expression,[6]; replicate 23,1.295
same,Surface SNAP-GIPR expression,[6]; replicate 24,1.372
same,Surface SNAP-GIPR expression,[6]; replicate 25,1.308
same,Surface SNAP-GIPR expression,[6]; replicate 26,1.104
same,Surface SNAP-GIPR expression,[6]; replicate 27,1.5
same,Surface SNAP-GIPR expression,[6]; replicate 28,1.095
same,Surface SNAP-GIPR expression,[6]; replicate 29,1.555
same,Surface SNAP-GIPR expression,[6]; replicate 30,1.424
same,Surface SNAP-GIPR expression,[6]; replicate 31,1.568
same,Surface SNAP-GIPR expression,[6]; replicate 32,1.239
same,Surface SNAP-GIPR expression,[6]; replicate 33,1.116
same,Surface SNAP-GIPR expression,[6]; replicate 34,1.325
same,Surface SNAP-GIPR expression,[6]; replicate 35,1.446
same,Surface SNAP-GIPR expression,[6]; replicate 36,1.136
same,Surface SNAP-GIPR expression,[6]; replicate 37,0.8646
same,Surface SNAP-GIPR expression,[6]; replicate 38,1.251
same,Surface SNAP-GIPR expression,[6]; replicate 39,1.117
same,Surface SNAP-GIPR expression,[6]; replicate 40,1.314
same,Surface SNAP-GIPR expression,[6]; replicate 41,1.425
same,+GIP internalisation (100 nM),"[7]; Fig 4E, GIP 100 nM",0.6926
same,GIP-specific internalisation (100 nM),"[7]; Fig 4E, GIP 100 nM",0.1787
same,Constitutive internalisation (100 nM),[7]; Fig 4E,0.5139
same,Surface expression,[7]; Fig 4E,1.204
same,"Internalisation, +GIP","[7]; Fig S4C, AD293",57.508
same,"Internalisation, GIP-only","[7]; Fig S4C, AD293",14.8294
same,"Internalisation, Vehicle","[7]; Fig S4C, AD293",42.6786
